Source: patent US20190144565A1 (UCB, published 2019)

How the values were obtained:
[1] = molecular target: IgE-Fc, the Fc portion of human IgE (Cε2-Cε4 domains, V224-K547 by Dorrington & Bennich numbering, carrying a C225A mutation) (human) (UniProt P01854); test: flow cytometry, Alexa488 IgE-Fc on RBL-SX38 cells; control at 100 ug/mL
[2] = molecular target: IgE-Fc, the Fc portion of human IgE (Cε2-Cε4 domains, V224-K547 by Dorrington & Bennich numbering, carrying a C225A mutation) (human) (UniProt P01854); test: flow cytometry, Alexa488 IgE-Fc on RBL-SX38 cells; control at 1 ug/mL
[3] = molecular target: IgE-Fc, the Fc portion of human IgE (Cε2-Cε4 domains, V224-K547 by Dorrington & Bennich numbering, carrying a C225A mutation) (human) (UniProt P01854); test: flow cytometry, Alexa488 IgE-Fc on RBL-SX38 cells; control at 31 ug/mL
[4] = molecular target: IgE-Fc, the Fc portion of human IgE (Cε2-Cε4 domains, V224-K547 by Dorrington & Bennich numbering, carrying a C225A mutation) (human) (UniProt P01854); test: flow cytometry, Alexa488 IgE-Fc on RBL-SX38 cells; control at 10 ug/mL
[5] = molecular target: IgE-Fc, the Fc portion of human IgE (Cε2-Cε4 domains, V224-K547 by Dorrington & Bennich numbering, carrying a C225A mutation) (human) (UniProt P01854); test: flow cytometry, Alexa488 IgE-Fc on RBL-SX38 cells; control at 3.1 ug/mL

Chain of IgE-Fc, the Fc portion of human IgE (Cε2-Cε4 domains, V224-K547 by Dorrington & Bennich numbering, carrying a C225A mutation) (human) (P01854 other isoform, or with tags, fused parts or gaps C225A C225A limits assumed): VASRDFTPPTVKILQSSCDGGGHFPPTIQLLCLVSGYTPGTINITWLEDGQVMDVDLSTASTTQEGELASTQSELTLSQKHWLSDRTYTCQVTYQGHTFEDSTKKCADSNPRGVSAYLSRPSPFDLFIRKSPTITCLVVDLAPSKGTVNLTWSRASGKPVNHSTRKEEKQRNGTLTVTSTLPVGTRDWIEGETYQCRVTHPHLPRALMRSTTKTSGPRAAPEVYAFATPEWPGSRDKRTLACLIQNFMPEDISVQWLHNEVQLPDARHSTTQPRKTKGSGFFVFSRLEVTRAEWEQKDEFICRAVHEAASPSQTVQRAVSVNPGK

Isotype control (antibody)
dissociation rate of IgE-Fc from FcεRI on cells [1]: 1.3e-05 s⁻¹ | dissociation rate of IgE-Fc from FcεRI on cells [2]: 1.25e-05 s⁻¹ | dissociation rate of IgE-Fc from FcεRI on cells [3]: 1.28e-05 s⁻¹ | dissociation rate of IgE-Fc from FcεRI on cells [4]: 1.35e-05 s⁻¹ | dissociation rate of IgE-Fc from FcεRI on cells [5]: 1.19e-05 s⁻¹
